Experimental data reported in article PMC13544220, “Glycemic and bodyweight effects of GIPR coding variation reflect differences in surface expression and intrinsic functional impairment” (Science Advances, 2026).

How the values were obtained:
Format in all cases: cell-based, human
[1] = system: wild-type and variant SNAP-GIPR; experiment: Constitutive and agonist-mediated internalization, reversible SNAP-tag labelling, AD293 cells; set-up: key to Internalisation, Vehicle / Internalisation, +GIP / Internalisation, GIP-only: % internalization: residual fluorescence after Mesna vs pre-Mesna; Surface expression: unit not given here; conditions: Mean; for +GIP internalisation (100 nM) / GIP-specific internalisation (100 nM) / Constitutive internalisation (100 nM) / Surface expression: Fig 4E; for +GIP internalisation (100 nM) / GIP-specific internalisation (100 nM): GIP 100 nM; for Internalisation, +GIP / Internalisation, GIP-only / Internalisation, Vehicle: Fig S4C, AD293
Outline: (§1)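 Percentage internalization is read as the fraction of specific SNAP fluorescence that survives Mesna stripping, compared with the image taken before Mesna. Wells are imaged in TNE buffer at pH 8.6 and again after 10 min.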

[2] = system: wild-type and variant SNAP-GIPR; experiment: Constitutive and agonist-mediated internalization, reversible SNAP-tag labelling, INS-1 cells; set-up: key to Internalisation, GIP-only / Internalisation, Vehicle / Internalisation, +GIP: % internalization: residual fluorescence after Mesna vs pre-Mesna; conditions: Mean; for +GIP internalisation (100 nM) / GIP-specific internalisation (100 nM) / Constitutive internalisation (100 nM): Fig 4G; for +GIP internalisation (100 nM) / GIP-specific internalisation (100 nM): GIP 100 nM; for Internalisation, +GIP / Internalisation, GIP-only / Internalisation, Vehicle: Fig S4C, INS-1
Outline: as §1

[3] = system: wild-type and variant SNAP-GIPR; experiment: Surface SNAP-GIPR expression (SNAP-tag labelling) in INS-1 cells; conditions: Fig 4G; Mean
Outline: (§2)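 Read-out: whole-cell fluorescence of surface-only SNAP label (Alexa Fluor 647, 500 nM, 10 min, RT), wide-field 20X, several FOVs per well. Flat-field corrected, phase-contrast masked, nontransfected-well signal subtracted; normalized to experiment mean or wild-type.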

[4] = system: wild-type and variant SNAP-GIPR; experiment: cADDis cAMP imaging in AD293 cells, ensemble, expression-matched and per decile; conditions: Fig S3F, cADDis, mean;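 also: Ensemble cells as % of IBMX/FSK response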
Outline: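 Surface GIPR and cAMP are measured in individual AD293 cells coexpressing SNAP-tagged receptor and the green cADDis biosensor, imaged live at 37°C. Responses are reported ensemble, expression-matched against wild-type deciles with extremes trimmed, or within each variant's own surface deciles.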

[5] = system: wild-type and variant SNAP-GIPR; experiment: Single-concentration GIP cAMP response by HTRF in AD293 cells; conditions: Fig S3F, HTRF, mean;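 also: ratio to experiment-wide average response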
Description: (§3) All variants were tested in parallel on each occasion to control for transfection efficiency differences between experiments.

[6] = system: wild-type and variant SNAP-GIPR; experiment: Surface SNAP-GIPR expression (SNAP-tag labelling) in AD293 cells; conditions: for AD293 Surface: Fig S3E, mean; for Surface SNAP-GIPR expression: sheet Fig 1C;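 as to all read-outs here: scaled to the experimental average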
Outline: as §2

[7] = system: wild-type and variant SNAP-GIPR; experiment: Single-concentration GIP cAMP response by HTRF in INS-1 cells; conditions: Fig S3E, mean
Description: as §3

[8] = column repeated, paired with cAMP 100 nM

B1: D66G (protein, UniProt P48546 22-466, looked up, variant D66G)
Gastric inhibitory …: RAETGSKGQTAGELYQRWERYRRECQETLAAAEPPSGLACNGSFGMYVCWDYAAPNATARASCPWYLPWHHHVAAGFVLRQCGSDGQWGLWRDHTQCENPEKNEAFLDQRLILERLQVMYTVGYSLSLATLLLALLILSLFRRLHCTRNYIHINLFTSFMLRAAAILSRDRLLPRPGPYLGDQALALWNQALAACRTAQIVTQYCVGANYTWLLVEGVYLHSLLVLVGGSEEGHFRYYLLLGWGAPALFVIPWVIVRYLYENTQCWERNEVKAIWWIIRTPILMTILINFLIFIRILGILLSKLRTRQMRCRDYRLRLARSTLTLVPLLGVHEVVFAPVTEEQARGALRFAKLGFEIFLSSFQGFLVSVLYCFINKEVQSEIRRGWHHCRLRRSLGEEQRQLPERAFRALPSGSGPGEVPTSRGLSSGTLPGPGNEASRELESYC
+GIP internalisation (100 nM) [1]: 0.106
GIP-specific internalisation (100 nM) [1]: -0.001031
Constitutive internalisation (100 nM) [1]: 0.1071
Surface expression [1]: 0.1742
Internalisation, +GIP [1]: 61.627
Internalisation, GIP-only [1]: -0.8775
Internalisation, Vehicle [1]: 62.5045
+GIP internalisation (100 nM) [2]: 0.08951
GIP-specific internalisation (100 nM) [2]: -0.01151
Constitutive internalisation (100 nM) [2]: 0.101
Internalisation, +GIP [2]: 50.62
Internalisation, GIP-only [2]: -7.618
Internalisation, Vehicle [2]: 58.2383
Surface expression [3]: 0.1735
AD293 100 pM cADDis [4]: -0.704
AD293 100 nM cADDis [4]: 4.118
AD293 100 pM HTRF [5]: 0.1227
AD293 100 nM HTRF [5]: 0.328
AD293 Surface [6, 8]: 0.2845
AD293 Surface ([6]; paired with cAMP 100 pM): 0.2845
Surface SNAP-GIPR expression ([6]; replicate 1): 0.2625
Surface SNAP-GIPR expression ([6]; replicate 2): 0.397
Surface SNAP-GIPR expression ([6]; replicate 3): 0.1659
Surface SNAP-GIPR expression ([6]; replicate 4): 0.02117
Surface SNAP-GIPR expression ([6]; replicate 5): 0.3372
Surface SNAP-GIPR expression ([6]; replicate 6): 0.161
Surface SNAP-GIPR expression ([6]; replicate 7): 0.3578
Surface SNAP-GIPR expression ([6]; replicate 8): 0.377
Surface SNAP-GIPR expression ([6]; replicate 9): 0.35
Surface SNAP-GIPR expression ([6]; replicate 10): 0.5096
Surface SNAP-GIPR expression ([6]; replicate 11): 0.4534
Surface SNAP-GIPR expression ([6]; replicate 12): 0.5149
Surface SNAP-GIPR expression ([6]; replicate 13): 0.197
Surface SNAP-GIPR expression ([6]; replicate 14): 0.2293
Surface SNAP-GIPR expression ([6]; replicate 15): 0.3425
Surface SNAP-GIPR expression ([6]; replicate 16): 0.4052
Surface SNAP-GIPR expression ([6]; replicate 17): 0.4309
Surface SNAP-GIPR expression ([6]; replicate 18): 0.3854
Surface SNAP-GIPR expression ([6]; replicate 19): 0.4111
Surface SNAP-GIPR expression ([6]; replicate 20): 0.3991
Surface SNAP-GIPR expression ([6]; replicate 21): 0.5534
Surface SNAP-GIPR expression ([6]; replicate 22): 0.4128
Surface SNAP-GIPR expression ([6]; replicate 23): 0.3708
Surface SNAP-GIPR expression ([6]; replicate 24): 0.3827
Surface SNAP-GIPR expression ([6]; replicate 25): 0.2399
Surface SNAP-GIPR expression ([6]; replicate 26): 0.2568
Surface SNAP-GIPR expression ([6]; replicate 27): 0.1279
Surface SNAP-GIPR expression ([6]; replicate 28): 0.1278
Surface SNAP-GIPR expression ([6]; replicate 29): 0.1867
Surface SNAP-GIPR expression ([6]; replicate 30): 0.2491
Surface SNAP-GIPR expression ([6]; replicate 31): 0.2077
Surface SNAP-GIPR expression ([6]; replicate 32): 0.1171
Surface SNAP-GIPR expression ([6]; replicate 33): 0.1153
Surface SNAP-GIPR expression ([6]; replicate 34): 0.2022
Surface SNAP-GIPR expression ([6]; replicate 35): 0.2952
Surface SNAP-GIPR expression ([6]; replicate 36): 0.2071
Surface SNAP-GIPR expression ([6]; replicate 37): 0.2146
Surface SNAP-GIPR expression ([6]; replicate 38): 0.1357
Surface SNAP-GIPR expression ([6]; replicate 39): 0.1562
Surface SNAP-GIPR expression ([6]; replicate 40): 0.1831
Surface SNAP-GIPR expression ([6]; replicate 41): 0.2136
INS-1 cAMP (100 nM) [7]: -0.2661

B2: R341P (protein, UniProt P48546 22-466, looked up, variant R341P)
Gastric inhibitory …: RAETGSKGQTAGELYQRWERYRRECQETLAAAEPPSGLACNGSFDMYVCWDYAAPNATARASCPWYLPWHHHVAAGFVLRQCGSDGQWGLWRDHTQCENPEKNEAFLDQRLILERLQVMYTVGYSLSLATLLLALLILSLFRRLHCTRNYIHINLFTSFMLRAAAILSRDRLLPRPGPYLGDQALALWNQALAACRTAQIVTQYCVGANYTWLLVEGVYLHSLLVLVGGSEEGHFRYYLLLGWGAPALFVIPWVIVRYLYENTQCWERNEVKAIWWIIRTPILMTILINFLIFIRILGILLSKLRTRQMRCRDYRLRLAPSTLTLVPLLGVHEVVFAPVTEEQARGALRFAKLGFEIFLSSFQGFLVSVLYCFINKEVQSEIRRGWHHCRLRRSLGEEQRQLPERAFRALPSGSGPGEVPTSRGLSSGTLPGPGNEASRELESYC
+GIP internalisation (100 nM) [1]: 0.1278
GIP-specific internalisation (100 nM) [1]: 0.02136
Constitutive internalisation (100 nM) [1]: 0.1065
Surface expression [1]: 0.1733
Internalisation, +GIP [1]: 72.1567
Internalisation, GIP-only [1]: 15.7264
Internalisation, Vehicle [1]: 56.4303
+GIP internalisation (100 nM) [2]: 0.1423
GIP-specific internalisation (100 nM) [2]: 0.02008
Constitutive internalisation (100 nM) [2]: 0.1222
Internalisation, +GIP [2]: 48.645
Internalisation, GIP-only [2]: 6.527
Internalisation, Vehicle [2]: 42.1183
Surface expression [3]: 0.2942
AD293 100 pM cADDis [4]: 0.6137
AD293 100 nM cADDis [4]: 9.179
AD293 100 pM HTRF [5]: 0.001435
AD293 100 nM HTRF [5]: 0.1915
AD293 Surface [6, 8]: 0.2494
AD293 Surface ([6]; paired with cAMP 100 pM): 0.2494
Surface SNAP-GIPR expression ([6]; replicate 1): 0.3004
Surface SNAP-GIPR expression ([6]; replicate 2): 0.416
Surface SNAP-GIPR expression ([6]; replicate 3): 0.1222
Surface SNAP-GIPR expression ([6]; replicate 4): 0.3179
Surface SNAP-GIPR expression ([6]; replicate 5): 0.375
Surface SNAP-GIPR expression ([6]; replicate 6): 0.2191
Surface SNAP-GIPR expression ([6]; replicate 7): 0.3629
Surface SNAP-GIPR expression ([6]; replicate 8): 0.2975
Surface SNAP-GIPR expression ([6]; replicate 9): 0.196
Surface SNAP-GIPR expression ([6]; replicate 10): 0.2642
Surface SNAP-GIPR expression ([6]; replicate 11): 0.31
Surface SNAP-GIPR expression ([6]; replicate 12): 0.2856
Surface SNAP-GIPR expression ([6]; replicate 13): 0.6221
Surface SNAP-GIPR expression ([6]; replicate 14): 0.2061
Surface SNAP-GIPR expression ([6]; replicate 15): 0.2357
Surface SNAP-GIPR expression ([6]; replicate 16): 0.2383
Surface SNAP-GIPR expression ([6]; replicate 17): 0.211
Surface SNAP-GIPR expression ([6]; replicate 18): 0.144
Surface SNAP-GIPR expression ([6]; replicate 19): 0.3559
Surface SNAP-GIPR expression ([6]; replicate 20): 0.2316
Surface SNAP-GIPR expression ([6]; replicate 21): 0.2368
Surface SNAP-GIPR expression ([6]; replicate 22): 0.1783
Surface SNAP-GIPR expression ([6]; replicate 23): 0.2272
Surface SNAP-GIPR expression ([6]; replicate 24): 0.2138
Surface SNAP-GIPR expression ([6]; replicate 25): 0.2383
Surface SNAP-GIPR expression ([6]; replicate 26): 0.2262
Surface SNAP-GIPR expression ([6]; replicate 27): 0.2274
Surface SNAP-GIPR expression ([6]; replicate 28): 0.2002
Surface SNAP-GIPR expression ([6]; replicate 29): 0.197
Surface SNAP-GIPR expression ([6]; replicate 30): 0.3017
Surface SNAP-GIPR expression ([6]; replicate 31): 0.1334
Surface SNAP-GIPR expression ([6]; replicate 32): 0.2186
Surface SNAP-GIPR expression ([6]; replicate 33): 0.2522
Surface SNAP-GIPR expression ([6]; replicate 34): 0.2282
Surface SNAP-GIPR expression ([6]; replicate 35): 0.2532
Surface SNAP-GIPR expression ([6]; replicate 36): 0.1015
Surface SNAP-GIPR expression ([6]; replicate 37): 0.1446
Surface SNAP-GIPR expression ([6]; replicate 38): 0.2212
Surface SNAP-GIPR expression ([6]; replicate 39): 0.2317
Surface SNAP-GIPR expression ([6]; replicate 40): 0.2075
Surface SNAP-GIPR expression ([6]; replicate 41): 0.2741
INS-1 cAMP (100 nM) [7]: -0.2249
